In patent US20100196361A1, “Method of inhibition of vascular development using an antibody” (DYAX CORP., priority 2003, published 2010):

T1: human Tie1-Fc fusion protein (Homo sapiens, UniProt P35590)
T1 construct: selected against the Tie1 extracellular domain fused to human Fc or to a histidine purification tag
T1 sequence (P35590 22-759 limits assumed): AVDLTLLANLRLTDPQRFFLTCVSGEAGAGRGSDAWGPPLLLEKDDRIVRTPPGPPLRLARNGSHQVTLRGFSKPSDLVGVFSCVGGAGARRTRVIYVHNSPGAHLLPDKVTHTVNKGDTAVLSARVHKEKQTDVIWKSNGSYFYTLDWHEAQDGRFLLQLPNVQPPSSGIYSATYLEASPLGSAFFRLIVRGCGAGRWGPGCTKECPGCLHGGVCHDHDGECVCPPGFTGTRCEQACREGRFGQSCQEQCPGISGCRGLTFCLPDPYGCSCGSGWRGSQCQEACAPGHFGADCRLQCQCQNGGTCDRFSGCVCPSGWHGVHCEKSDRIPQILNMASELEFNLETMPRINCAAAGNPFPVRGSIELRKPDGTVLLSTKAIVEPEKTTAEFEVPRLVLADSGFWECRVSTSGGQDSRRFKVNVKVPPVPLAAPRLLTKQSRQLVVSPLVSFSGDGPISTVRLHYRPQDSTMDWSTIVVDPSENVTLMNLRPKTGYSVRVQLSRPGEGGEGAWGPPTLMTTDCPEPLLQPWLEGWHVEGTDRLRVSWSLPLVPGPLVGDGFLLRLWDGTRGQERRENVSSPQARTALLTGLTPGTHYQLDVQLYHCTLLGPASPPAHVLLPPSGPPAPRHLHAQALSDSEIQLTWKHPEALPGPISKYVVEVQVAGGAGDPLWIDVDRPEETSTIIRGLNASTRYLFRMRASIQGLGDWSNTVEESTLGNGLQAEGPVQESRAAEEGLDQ

T2: human Tie1 Fc (Homo sapiens, UniProt P35590)
T2 construct: selected against the Tie1 extracellular domain fused to human Fc or to a histidine purification tag
T2 sequence (P35590 22-759 limits assumed): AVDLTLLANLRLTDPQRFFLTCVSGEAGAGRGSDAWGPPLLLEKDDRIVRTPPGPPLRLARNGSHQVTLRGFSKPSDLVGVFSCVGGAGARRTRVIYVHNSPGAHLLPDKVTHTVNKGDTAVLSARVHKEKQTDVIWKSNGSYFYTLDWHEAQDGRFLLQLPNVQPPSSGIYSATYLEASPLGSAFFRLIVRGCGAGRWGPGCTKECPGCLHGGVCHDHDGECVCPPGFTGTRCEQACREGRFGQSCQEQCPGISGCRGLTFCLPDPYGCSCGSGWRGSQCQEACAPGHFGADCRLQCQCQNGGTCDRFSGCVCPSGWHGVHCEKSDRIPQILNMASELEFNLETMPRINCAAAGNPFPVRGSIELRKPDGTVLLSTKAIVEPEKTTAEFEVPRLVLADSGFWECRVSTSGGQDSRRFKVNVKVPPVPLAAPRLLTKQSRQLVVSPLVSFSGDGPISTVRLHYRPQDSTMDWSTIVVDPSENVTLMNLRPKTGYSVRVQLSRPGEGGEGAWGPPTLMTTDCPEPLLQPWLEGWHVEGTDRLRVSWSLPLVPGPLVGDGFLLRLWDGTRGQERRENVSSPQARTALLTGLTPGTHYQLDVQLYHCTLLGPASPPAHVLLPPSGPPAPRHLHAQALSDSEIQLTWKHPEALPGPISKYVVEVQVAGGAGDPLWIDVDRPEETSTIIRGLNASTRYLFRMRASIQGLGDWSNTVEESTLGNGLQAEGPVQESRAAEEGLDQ


Tests used:
[1] = biological target: T1, human Tie1-Fc fusion protein; test: BIAcore 3000 affinity analysis of Fab and IgG; type: binding
Protocol: Affinity analysis of the Fab and IgGs was performed using surface plasmon resonance using a BIAcore 3000 instrument. For this analysis both dimeric (Tie1-Fc fusion protein) and monomeric (Tie1-HIS) versions of the extracellular domain of the Tie1 were used. The sensor chips used in these experiments were CM5 (dextran-coated) which allow immobilization of proteins to the chip via standard amine coupling chemistries. The concentration of flowed antibody was determined using a surface plasmon resonance based method. Using a high-density protein A sensor chip, under mass transport limited conditions, the response signal is dependent only on the concentration of the antibody in the sample under test. This approach allows a precise determination of the antibody concentration, a parameter important for accurate determination of the KD.
470 RUs of Tie1 HIS protein were coated on a CM5 sensor chip and 5, 20, 100, and 500 nM of the Fab flowed over the chip at four different flow rates ([…]), rates in which the system is not mass transport limited. Kinetic data was typically determined using a range of analyte concentrations and three different chip coating densities. The data from the lowest coating density that gave a good signal was typically chosen, this was often in a range from 50-100 RUs. Using such low coating densities allowed the sensor curves to be fit using BIAEVALUATION™ 3.0 software to a 1:1 model, often even when using a bivalent analyte (IgG or Tie1-Fc fusion protein). For bivalent analytes, when fit to a 1:1 model was not possible, the curves were fit using a 2:1 model.
The anti-Tie1 antibodies described here bind to both human and mouse Tie1 molecules. The binding of the anti-Tie1 Fab to mouse Tie1-Fc fusion protein was compared with the binding of the anti-Tie1 Fab to human Tie1-Fc fusion protein. In both of these experiments the Tie1-Fc fusion protein was immobilized on the sensor chip and the anti Tie-1 Fab served as the analyte. Under these experimental conditions the anti-Tie1 Fab has very similar KD (˜3 nM) values for both the human and mouse Tie1-Fc fusion proteins (Table 9). Under conditions that are likely to mimic those used in the animal efficacy experiments, i.e. Tie1-Fc immobilized to the CM5 sensor chip and anti-Tie1 used as the analyte, the measured KD was 0.2 nM.

[2] = biological target: T2, human Tie1 Fc; test: BIAcore, Fab over Tie1/Fc coated on CM5 chip; type: binding; conditions: Fab analyte
Description: To evaluate if the binding behaviour had been affected in any way by the conversion of the somatic mutations back to germline residues, the parental and the germlined E3b antibodies were produced and tested in Biacore as Fab fragments. Here, by contrast to what was done for the IgGs (see Example 28), and in order to measure a monovalent interaction, the Fabs were run over the antigen directly coated onto the surface.
Recombinant human Tie1/Fc was coated on a CM5 chip. The surface of the chip was first activated with a 7-minute pulse of 0.05 M NHS/0.2 M EDC, then Tie1/Fc (2 μg/ml in 10 mM sodium acetate, pH 4.0) was run over the chip surface until 750 RUs were coated on the surface. All flow cells were subsequently deactivated with a 7-minute pulse of 1 M ethanolamine hydrochloride, pH 8.5. All further experiments were performed in HBS buffer.
The parental and the germlined E3b Fabs were prepared. A series of dilution (50, 25, 12.5, 6.25 and 3.125 nM) was prepared in HBS buffer. Samples were injected at 30 μl/min for 5.3 minutes using the KINJECT™ program. This was followed by a 10-minute dissociation phase, and the remaining Fab was stripped from the surface with a single 18-sec injection of 50 mM NaOH/1 M NaCl.
Sensorgrams were analyzed using the simultaneous ka/kd fitting program from the BIAEVALUATION™ software 3.1 assuming a 1:1 model.

[3] = system: LEII lung mouse endothelial cell line; test: Tube formation by mouse endothelial cell line LEII on […]; type: cell-based; conditions: LEII cells on MATRIGEL, 16 to 18 hours
Protocol: In order to assess mouse Tie1 cross-reactivity and biological activity on mouse Tie1, both E3 and germlined E3 were evaluated for their ability to inhibit tube formation in vitro using mouse endothelial cell line (LEII).
LEII lung mouse endothelial cell line (ATCC) was cultured in a T-25 flask in MEM medium with GLUTAMAX™ (Life Technologies Ltd., Paisley, Scotland) supplemented with 10% FCS, and 1% penicillin/streptomycin. During culturing, the cells were kept in a proliferative state by culturing them in a split ratio 1:5 at an approximate density of the monolayer of about 80%. LEII monolayers were treated with trypsin/EDTA (500 μl/dish) at 37° C. for 3 min. Trypsin activity was stopped by adding 3 volumes of complete MEM medium. The cells were carefully scraped, separated by repeated pipetting, and finally washed with PBS.LEII cells were seeded in their culture medium (20-40×103/50 μl/well of a 96-well plate) on a basement membrane (BIOCOAT™ Angiogenesis System; Becton Dickinson). […] The total length of the tube network was then quantified at 40× magnification by the METAVUE™ Software (Universal Imaging Corporation). Results from triplicate wells were expressed as mean vessel area per field ±SEM (relative units). […]

| Molecule | Kon [1] [M⁻¹ s⁻¹] | koff [1] [s⁻¹] | koff ([2]; Human Tie1 Fc coated on CM5) [s⁻¹] | kon ([2]; Human Tie1 Fc coated on CM5, 750 RU) [M⁻¹ s⁻¹] | inhibition of tube formation in mouse endothelial cells [3] |
| --- | --- | --- | --- | --- | --- |
| E3: human anti-Tie1 antibody from phage Fab library, reformatted as IgG; HC variable SEQ ID NO:114, LC variable SEQ ID NO:116 (antibody, V domains shown, IgG constant regions; Synthetically generated peptide) VH: EVQLLESGGGLVQPGGSLRLSCAASGFTFSMYGMVWVRQAPGKGLEWVSVISPSGGNTGYADSVKGRFTISRDNSKNTLYLQVNSLRAEDTAVYYCARAPRGYSYGYYYWGQGTLVTVSSASTKGPSVFPLAPSSKSTSGG VL: DIQMTQSPLSLSASVGDRVTITCRASQGIGHYLAWYQQKPGKVPKLLIYTASTLQSGVPSRFSGSGSGTDFTLTINSLQPEDVATYYCQQFNSYPHTFGQGTRLDIK | 6190 | 3.61e-05 | – | – | – |
| parental E3 Fab: soluble Fab fragment of the parental E3 anti-Tie1 antibody (antibody, V domains shown) VH: EVQLLESGGGLVQPGGSLRLSCAASGFTFSMYGMVWVRQAPGKGLEWVSVISPSGGNTGYADSVKGRFTISRDNSKNTLYLQVNSLRAEDTAVYYCARAPRGYSYGYYYWGQGTLVTVSSASTKGPSVFPLAPSSKSTSGG VL: DIQMTQSPLSLSASVGDRVTITCRASQGIGHYLAWYQQKPGKVPKLLIYTASTLQSGVPSRFSGSGSGTDFTLTINSLQPEDVATYYCQQFNSYPHTFGQGTRLDIK | 8260 | 4.47e-05 | 0.00105 | 88100 | – |
| DX-2210: E3 antibody in which the light chain has been germlined (antibody, V domains shown) VH: EVQLLESGGGLVQPGGSLRLSCAASGFTFSMYGMVWVRQAPGKGLEWVSVISPSGGNTGYADSVKGRFTISRDNSKNTLYLQVNSLRAEDTAVYYCARAPRGYSYGYYYWGQGTLVTVSSASTKGPSVFPLAPSSKSTSGG VL: DIQMTQSPSSLSASVGDRVTITCRASQGIGHYLAWYQQKPGKVPKLLIYTASTLQSGVPSRFSGSGSGTDFTLTISSLQPEDVATYYCQQFNSYPHTFGQGTRLEIK | – | – | – | – | potent inhibitor of tube formation in mouse endothelial cells |
